Test results: article PMC9904277 (2023)

Target: MCL-1 (Homo sapiens, UniProt Q07820)
Test: competition fluorescence anisotropy

MCL-1, sequence (Q07820 whole entry): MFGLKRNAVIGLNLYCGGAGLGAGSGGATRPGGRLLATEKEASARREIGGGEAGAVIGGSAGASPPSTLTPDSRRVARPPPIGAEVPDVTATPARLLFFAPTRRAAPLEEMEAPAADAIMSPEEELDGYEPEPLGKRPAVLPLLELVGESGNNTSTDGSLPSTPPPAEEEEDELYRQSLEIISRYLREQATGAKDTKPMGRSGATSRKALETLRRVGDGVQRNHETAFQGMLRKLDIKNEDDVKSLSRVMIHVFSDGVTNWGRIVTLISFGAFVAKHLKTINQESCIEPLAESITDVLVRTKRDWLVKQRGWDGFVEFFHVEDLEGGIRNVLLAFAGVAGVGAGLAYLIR

| IC50 [nM] | Binder |
| --- | --- |
| 2700 | SAAQLTAARLKALGDELHQRTMW [HRK-wt 28-50] |
| > 50000 | NLWAAQRYGRELRRMSDEFVDSFKK [BAD-wt BH3] |
